Test results: patent US20250109215A1 (Xencor, published 2025)

How the values were obtained:
human CD3 [1] = target: T1, human CD3 (human, UniProt P07766 23-126; P04234 22-105); test: SPR; human CD3-Fc (printed 'CD388-Fc', Sino Biological) covalently bound to the chip; test article passed over at 3.125, 12.5, 50 and 200 nM
T1 construct: The legend says only human CD3

cyno CD3 [2] = target: T2, cyno CD3 (cynomolgus monkey, UniProt Q95LI5 22-117; Q95LI8 22-105); test: SPR; cynomolgus monkey CD3-Fc (printed 'CD388-Fc', Sino Biological) covalently bound to the chip; test article passed over at 3.125, 12.5, 50 and 200 nM
T2 construct: The legend says only cyno CD3; also called cynomolgus monkey CD3
T2 sequence (Q95LI5 22-117, form in doubt, chain 1 of 2): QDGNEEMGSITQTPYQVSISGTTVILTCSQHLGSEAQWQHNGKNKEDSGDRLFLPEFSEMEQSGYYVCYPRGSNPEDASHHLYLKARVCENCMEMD
T2 sequence (Q95LI8 22-105, form in doubt, chain 2 of 2): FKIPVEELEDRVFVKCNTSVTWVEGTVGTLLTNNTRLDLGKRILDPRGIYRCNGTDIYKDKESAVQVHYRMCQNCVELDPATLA

human CD3 [3] = target: T1, human CD3; test: SPR; human CD3-Fc (printed 'CD388-Fc', Sino Biological) covalently bound to the chip; test article passed over at 31.25, 125, 500 and 2000 nM
cyno CD3 [4] = target: T2, cyno CD3; test: SPR; cynomolgus monkey CD3-Fc (printed 'CD388-Fc', Sino Biological) covalently bound to the chip; test article passed over at 31.25, 125, 500 and 2000 nM

T1 sequence (P07766 23-126, chain 1 of 2): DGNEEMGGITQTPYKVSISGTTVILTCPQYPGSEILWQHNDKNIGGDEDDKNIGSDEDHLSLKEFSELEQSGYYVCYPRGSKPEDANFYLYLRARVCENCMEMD
T1 sequence (P04234 22-105, chain 2 of 2): as the sequence (Q95LI8 22-105, form in doubt, chain 2 of 2) above, with V5I, K15N, V20I, T32S, N33D, N34I, A64T, N74S, L83V counted along it

Binder	Kd (human CD3 [1]) [nM]	Kd (cyno CD3 [2]) [nM]	Kd (human CD3 [3]) [nM]	Kd (cyno CD3 [4]) [nM]
XENP13677 (bispecific antibody, anti-CD3 scFv H1.30_L1.47; also called Anti-CD20 (C2B8_H1.202_L1.113) x Anti-CD3 (H1.30_L1.47) Fab-scFv-Fc) HC 1 (Fab-Fc): QVQLVQSGAEVKKPGASVKVSCKASGYTFTSYNMHWVRQAPGQRLEWMGAIYPGNGATSYSQKFQGRVTITADTSASTAYMELSSLRSEDTAVYYCARSYYMGGDWYFDVWGAGTLVTVSSASTKGPSVFPLAPSSKSTSGGTAALGCLVKDYFPEPVTVSWNSGALTSGVHTFPAVLQSSGLYSLSSVVTVPSSSLGTQTYICNVNHKPSDTKVDKKVEPKSCDKTHTCPPCPAPPVAGPSVFLFPPKPKDTLMISRTPEVTCVVVDVKHEDPEVKFNWYVDGVEVHNAKTKPREEEYNSTYRVVSVLTVLHQDWLNGKEYKCKVSNKALPAPIEKTISKAKGQPREPQVYTLPPSREEMTKNQVSLTCDVSGFYPSDIAVEWESDGQPENNYKTTPPVLDSDGSFFLYSKLTVDKSRWEQGDVFSCSVMHEALHNHYTQKSLSLSPGK HC 2 (scFv-Fc): not shown light: QIVLTQSPSSLSASVGDRVTITCRASWSVSYIHWFQQKPGKSPKPLIYATSNLASGVPVRFSGSGSGTDYTLTISSLQPEDFATYYCQQWTHNPPTFGGGTKVEIKRTVAAPSVFIFPPSDEQLKSGTASVVCLLNNFYPREAKVQWKVDNALQSGNSQESVTEQDSKDSTYSLSSTLTLSKADYEKHKVYACEVTHQGLSSPVTKSFNRGEC	4.9	5.6		
XENP14389 (bispecific antibody, anti-CD3 scFv H1.32_L1.47; also called Anti-CD20 (C2B8_H1.202_L1.113) x Anti-CD3 (H1.32_L1.47) Fab-scFv-Fc) HC 1 (Fab-Fc): QVQLVQSGAEVKKPGASVKVSCKASGYTFTSYNMHWVRQAPGQRLEWMGAIYPGNGATSYSQKFQGRVTITADTSASTAYMELSSLRSEDTAVYYCARSYYMGGDWYFDVWGAGTLVTVSSASTKGPSVFPLAPSSKSTSGGTAALGCLVKDYFPEPVTVSWNSGALTSGVHTFPAVLQSSGLYSLSSVVTVPSSSLGTQTYICNVNHKPSDTKVDKKVEPKSCDKTHTCPPCPAPPVAGPSVFLFPPKPKDTLMISRTPEVTCVVVDVKHEDPEVKFNWYVDGVEVHNAKTKPREEEYNSTYRVVSVLTVLHQDWLNGKEYKCKVSNKALPAPIEKTISKAKGQPREPQVYTLPPSREEMTKNQVSLTCDVSGFYPSDIAVEWESDGQPENNYKTTPPVLDSDGSFFLYSKLTVDKSRWEQGDVFSCSVMHEALHNHYTQKSLSLSPGK HC 2 (scFv-Fc): not shown light: QIVLTQSPSSLSASVGDRVTITCRASWSVSYIHWFQQKPGKSPKPLIYATSNLASGVPVRFSGSGSGTDYTLTISSLQPEDFATYYCQQWTHNPPTFGGGTKVEIKRTVAAPSVFIFPPSDEQLKSGTASVVCLLNNFYPREAKVQWKVDNALQSGNSQESVTEQDSKDSTYSLSSTLTLSKADYEKHKVYACEVTHQGLSSPVTKSFNRGEC	44	45		
XENP14392 (bispecific antibody, anti-CD3 scFv H1.89_L1.47; also called Anti-CD20 (C2B8_H1.202_L1.113) x Anti-CD3 (H1.89_L1.47) Fab-scFv-Fc) HC 1 (Fab-Fc): QVQLVQSGAEVKKPGASVKVSCKASGYTFTSYNMHWVRQAPGQRLEWMGAIYPGNGATSYSQKFQGRVTITADTSASTAYMELSSLRSEDTAVYYCARSYYMGGDWYFDVWGAGTLVTVSSASTKGPSVFPLAPSSKSTSGGTAALGCLVKDYFPEPVTVSWNSGALTSGVHTFPAVLQSSGLYSLSSVVTVPSSSLGTQTYICNVNHKPSDTKVDKKVEPKSCDKTHTCPPCPAPPVAGPSVFLFPPKPKDTLMISRTPEVTCVVVDVKHEDPEVKFNWYVDGVEVHNAKTKPREEEYNSTYRVVSVLTVLHQDWLNGKEYKCKVSNKALPAPIEKTISKAKGQPREPQVYTLPPSREEMTKNQVSLTCDVSGFYPSDIAVEWESDGQPENNYKTTPPVLDSDGSFFLYSKLTVDKSRWEQGDVFSCSVMHEALHNHYTQKSLSLSPGK HC 2 (scFv-Fc): not shown light: QIVLTQSPSSLSASVGDRVTITCRASWSVSYIHWFQQKPGKSPKPLIYATSNLASGVPVRFSGSGSGTDYTLTISSLQPEDFATYYCQQWTHNPPTFGGGTKVEIKRTVAAPSVFIFPPSDEQLKSGTASVVCLLNNFYPREAKVQWKVDNALQSGNSQESVTEQDSKDSTYSLSSTLTLSKADYEKHKVYACEVTHQGLSSPVTKSFNRGEC	120	110		
XENP14393 (bispecific antibody, anti-CD3 scFv H1.90_L1.47; also called Anti-CD20 (C2B8_H1.202_L1.113) x Anti-CD3 (H1.90_L1.47) Fab-scFv-Fc) HC 1 (Fab-Fc): QVQLVQSGAEVKKPGASVKVSCKASGYTFTSYNMHWVRQAPGQRLEWMGAIYPGNGATSYSQKFQGRVTITADTSASTAYMELSSLRSEDTAVYYCARSYYMGGDWYFDVWGAGTLVTVSSASTKGPSVFPLAPSSKSTSGGTAALGCLVKDYFPEPVTVSWNSGALTSGVHTFPAVLQSSGLYSLSSVVTVPSSSLGTQTYICNVNHKPSDTKVDKKVEPKSCDKTHTCPPCPAPPVAGPSVFLFPPKPKDTLMISRTPEVTCVVVDVKHEDPEVKFNWYVDGVEVHNAKTKPREEEYNSTYRVVSVLTVLHQDWLNGKEYKCKVSNKALPAPIEKTISKAKGQPREPQVYTLPPSREEMTKNQVSLTCDVSGFYPSDIAVEWESDGQPENNYKTTPPVLDSDGSFFLYSKLTVDKSRWEQGDVFSCSVMHEALHNHYTQKSLSLSPGK HC 2 (scFv-Fc): not shown light: QIVLTQSPSSLSASVGDRVTITCRASWSVSYIHWFQQKPGKSPKPLIYATSNLASGVPVRFSGSGSGTDYTLTISSLQPEDFATYYCQQWTHNPPTFGGGTKVEIKRTVAAPSVFIFPPSDEQLKSGTASVVCLLNNFYPREAKVQWKVDNALQSGNSQESVTEQDSKDSTYSLSSTLTLSKADYEKHKVYACEVTHQGLSSPVTKSFNRGEC	120	120		
XENP16373 (bispecific antibody, anti-CD3 scFv H1.105_L1.47; also called Anti-CD20 (C2B8_H1.202_L1.113) x Anti-CD3 (H1.105_L1.47) Fab-scFv-Fc) HC 1 (Fab-Fc): QVQLVQSGAEVKKPGASVKVSCKASGYTFTSYNMHWVRQAPGQRLEWMGAIYPGNGATSYSQKFQGRVTITADTSASTAYMELSSLRSEDTAVYYCARSYYMGGDWYFDVWGAGTLVTVSSASTKGPSVFPLAPSSKSTSGGTAALGCLVKDYFPEPVTVSWNSGALTSGVHTFPAVLQSSGLYSLSSVVTVPSSSLGTQTYICNVNHKPSDTKVDKKVEPKSCDKTHTCPPCPAPPVAGPSVFLFPPKPKDTLMISRTPEVTCVVVDVKHEDPEVKFNWYVDGVEVHNAKTKPREEEYNSTYRVVSVLTVLHQDWLNGKEYKCKVSNKALPAPIEKTISKAKGQPREPQVYTLPPSREEMTKNQVSLTCDVSGFYPSDIAVEWESDGQPENNYKTTPPVLDSDGSFFLYSKLTVDKSRWEQGDVFSCSVMHEALHNHYTQKSLSLSPGK HC 2 (scFv-Fc): EVQLVESGGGLVQPGGSLRLSCAASGFTFSTYAMNWVRQAPGKGLEWVGRIRSKYNNYATYYADSVKGRFTISRDDSKNTLYLQMNSLRAEDTAVYYCVRHGNFGDQYVSWFDYWGQGTLVTVSSGKPGSGKPGSGKPGSGKPGSQAVVTQEPSLTVSPGGTVTLTCGSSTGAVTTSNYANWVQQKPGKSPRGLIGGTNKRAPGVPARFSGSLLGGKAALTISGAQPEDEADYYCALWYSNHWVFGGGTKLTVLEPKSSDKTHTCPPCPAPPVAGPSVFLFPPKPKDTLMISRTPEVTCVVVDVKHEDPEVKFNWYVDGVEVHNAKTKPREEQYNSTYRVVSVLTVLHQDWLNGKEYKCKVSNKALPAPIEKTISKAKGQPREPQVYTLPPSREQMTKNQVKLTCLVKGFYPSDIAVEWESNGQPENNYKTTPPVLDSDGSFFLYSKLTVDKSRWQQGNVFSCSVMHEALHNHYTQKSLSLSPGK light: QIVLTQSPSSLSASVGDRVTITCRASWSVSYIHWFQQKPGKSPKPLIYATSNLASGVPVRFSGSGSGTDYTLTISSLQPEDFATYYCQQWTHNPPTFGGGTKVEIKRTVAAPSVFIFPPSDEQLKSGTASVVCLLNNFYPREAKVQWKVDNALQSGNSQESVTEQDSKDSTYSLSSTLTLSKADYEKHKVYACEVTHQGLSSPVTKSFNRGEC			4000	420
